Measurements reported in the supplement of paper PMC12783771.
± gives the standard deviation of the averaged measurements.

B1: library; a variant is named by its letters at X, in order (parent)
chain: MNIQIGELAKRTACPVVTIRFYEQEGLLPPPGRSRGNFRLYGEEHVERLQFIRHCRSLDMPLSDVRTLLSYRKRPDQDCGEVXMLLDEHIRQVESRIGALLELKHHLVELREACSGARPAQSCGILQXLSXCVCXTRGTTAHXSD

Assays:
[1] = variants of: B1; experiment: sfGFP reporter fluorescence (15 h) (µM FITC); higher = higher leak; details: library round: Round 2; ligand: none
How it was run: (§1)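 Linear PbrR templates were made by PCR, normalized to 5 nM with an Echo, and expressed in BL21 Star (DE3) PANOx-SP extract with the pPbrR-sfGFP reporter plasmid and 30 μg/mL GamS. Echo-assembled 1 μL reactions held 1 µM lead chloride, 30 µM zinc acetate or no metal and were incubated 15 hr at 30 °C. Endpoint sfGFP fluorescence was read on a Synergy Neo2 and expressed as µM FITC using standard curves. Up to three biological replicates were run.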

[2] = variants of: B1; experiment: sfGFP reporter fluorescence (15 h) (µM FITC); higher = stronger transcriptional activation; details: library round: Round 2
How it was run: as §1

Question: Which sfGFP reporter fluorescence [1] does the source give for NPDAP I90L here?
Answer: Its sfGFP reporter fluorescence is 0.0467 ± 0.0027.

Question: And the sfGFP reporter fluorescence ([2]; ligand: 1 µM Pb)?
Answer: The sfGFP reporter fluorescence was 0.04301 ± 0.00034.

Question: And the sfGFP reporter fluorescence ([2]; ligand: 30 µM Zn)?
Answer: Its sfGFP reporter fluorescence is 0.0482 ± 0.0039.

Question: With NSAAP as the variant, how does the sfGFP reporter fluorescence [1] read?
Answer: Its sfGFP reporter fluorescence is 0.0758 ± 0.0055.

Question: And the sfGFP reporter fluorescence ([2]; ligand: 1 µM Pb)?
Answer: The sfGFP reporter fluorescence was 0.162 ± 0.0077.

Question: What about the sfGFP reporter fluorescence ([2]; ligand: 30 µM Zn) of the same variant?
Answer: Its sfGFP reporter fluorescence is 1.67 ± 0.15.

Question: Which sfGFP reporter fluorescence [1] does the source give for NSEPP here?
Answer: Its sfGFP reporter fluorescence is 0.0629 ± 0.0028.

Question: What about the sfGFP reporter fluorescence ([2]; ligand: 1 µM Pb) of the same variant?
Answer: The sfGFP reporter fluorescence was 0.145 ± 0.014.

Question: And the sfGFP reporter fluorescence ([2]; ligand: 30 µM Zn)?
Answer: Its sfGFP reporter fluorescence is 1.79 ± 0.34.

Question: For NMDDP M60L D64T L107C, which sfGFP reporter fluorescence [1] is on record?
Answer: Its sfGFP reporter fluorescence is 3.16 ± 0.21.

Question: And the sfGFP reporter fluorescence ([2]; ligand: 1 µM Pb)?
Answer: The sfGFP reporter fluorescence was 2.93 ± 0.29.

Question: What about the sfGFP reporter fluorescence ([2]; ligand: 30 µM Zn) of the same variant?
Answer: The sfGFP reporter fluorescence was 4.14 ± 0.31.

Question: Which results are given for NMDDP R96G K104V?
Answer: sfGFP reporter fluorescence [1]: 0.0669 ± 0.0034; sfGFP reporter fluorescence ([2]; ligand: 1 µM Pb): 0.0841 ± 0.003; sfGFP reporter fluorescence ([2]; ligand: 30 µM Zn): 0.58 ± 0.055

Question: With NTCDP M60L as the variant, how does the sfGFP reporter fluorescence [1] read?
Answer: The sfGFP reporter fluorescence was 0.222 ± 0.016.

Question: And the sfGFP reporter fluorescence ([2]; ligand: 1 µM Pb)?
Answer: Its sfGFP reporter fluorescence is 0.784 ± 0.021.

Question: What about the sfGFP reporter fluorescence ([2]; ligand: 30 µM Zn) of the same variant?
Answer: Its sfGFP reporter fluorescence is 2.43 ± 0.27.

Question: With NTDAP L107C as the variant, how does the sfGFP reporter fluorescence [1] read?
Answer: Its sfGFP reporter fluorescence is 0.819 ± 0.064.

Question: And the sfGFP reporter fluorescence ([2]; ligand: 1 µM Pb)?
Answer: The sfGFP reporter fluorescence was 1.7 ± 0.12.

Question: And the sfGFP reporter fluorescence ([2]; ligand: 30 µM Zn)?
Answer: The sfGFP reporter fluorescence was 3.23 ± 0.041.

Question: For NMDDP M60L P61N K104V L107C, which sfGFP reporter fluorescence [1] is on record?
Answer: Its sfGFP reporter fluorescence is 0.759 ± 0.1.

Question: And the sfGFP reporter fluorescence ([2]; ligand: 1 µM Pb)?
Answer: The sfGFP reporter fluorescence was 1.83 ± 0.19.

Question: What about the sfGFP reporter fluorescence ([2]; ligand: 30 µM Zn) of the same variant?
Answer: Its sfGFP reporter fluorescence is 3.54 ± 0.46.

Question: With NTDDP P61N D64K L107C as the variant, how does the sfGFP reporter fluorescence [1] read?
Answer: Its sfGFP reporter fluorescence is 2.26 ± 0.67.

Question: And the sfGFP reporter fluorescence ([2]; ligand: 1 µM Pb)?
Answer: Its sfGFP reporter fluorescence is 2.58 ± 0.67.

Question: What about the sfGFP reporter fluorescence ([2]; ligand: 30 µM Zn) of the same variant?
Answer: Its sfGFP reporter fluorescence is 3.04 ± 0.32.

Question: With NTDAP M60L P61N D64K as the variant, how does the sfGFP reporter fluorescence [1] read?
Answer: Its sfGFP reporter fluorescence is 0.878 ± 0.074.

Question: What about the sfGFP reporter fluorescence ([2]; ligand: 1 µM Pb) of the same variant?
Answer: Its sfGFP reporter fluorescence is 2.33 ± 0.17.

Question: What about the sfGFP reporter fluorescence ([2]; ligand: 30 µM Zn) of the same variant?
Answer: The sfGFP reporter fluorescence was 3.33 ± 0.36.
